For one molecule, binding result and Kd results are on record in US20240245798A1 (TUBULIS, published 2024).

Assay [1] has as its target T1, recombinant hexameric human C1q complement protein (human, UniProt P02745 23-245; P02746 28-253; P02747 29-245, limits assumed).
T1 construct: Described only as recombinant hexameric C1q; also called complement factor C1q
In words: HTRF human C1q binding assay (Cisbio). (In general: TR-FRET usually uses a lanthanide donor and a delayed reading to cut background.)

The target of assay [2] is T2, purified recombinant human 5T4 antigen, extracellular domain as 6x-Histidine fusion protein (glycosylated) (human, UniProt Q13641 32-355).
T2 construct: Expressed in Expi-HEK293; also called glycosylated 5T4; recombinant immobilized human 5T4 antigen; not shown: 6x-Histidine tag
T2 sequence: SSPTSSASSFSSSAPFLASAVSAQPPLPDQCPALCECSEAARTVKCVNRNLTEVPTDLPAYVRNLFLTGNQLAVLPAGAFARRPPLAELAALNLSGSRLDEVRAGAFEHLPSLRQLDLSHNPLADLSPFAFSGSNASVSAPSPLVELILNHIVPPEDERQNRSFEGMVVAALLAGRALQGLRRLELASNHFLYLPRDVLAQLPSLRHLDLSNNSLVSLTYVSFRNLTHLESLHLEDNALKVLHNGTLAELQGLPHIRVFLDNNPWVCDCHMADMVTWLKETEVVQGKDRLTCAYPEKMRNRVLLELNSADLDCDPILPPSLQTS
In words: ELISA on immobilized recombinant human 5T4 ECD-6xHis; apparent KD, one-site specific binding fit. (In general: In an ELISA, binding on a coated surface is turned into a signal by an enzyme label.)

For assay [3], the target named is T3, purified recombinant human 5T4 antigen, extracellular domain as 6x-Histidine fusion protein, de-glycosylated … (human, UniProt Q13641 32-355, de-glycosylated with PNGase F over night at 37 C).
T3 construct: Same construct as m5 after PNGase F treatment; also called de-glycosylated 5T4; not shown: 6x-Histidine tag
T3 sequence: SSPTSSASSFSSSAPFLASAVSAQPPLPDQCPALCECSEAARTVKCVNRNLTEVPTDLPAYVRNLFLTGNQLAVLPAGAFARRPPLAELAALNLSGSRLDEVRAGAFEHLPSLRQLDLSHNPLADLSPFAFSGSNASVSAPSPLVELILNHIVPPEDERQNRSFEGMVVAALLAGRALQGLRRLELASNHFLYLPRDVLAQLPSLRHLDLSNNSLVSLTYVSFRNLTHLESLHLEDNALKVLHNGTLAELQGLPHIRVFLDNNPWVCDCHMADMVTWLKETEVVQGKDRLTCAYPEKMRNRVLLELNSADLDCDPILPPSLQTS
In words: ELISA on immobilized PNGase F-treated recombinant human 5T4 ECD-6xHis; apparent KD, one-site specific binding fit.

For assay [4], the target named is T4, human 5T4 (trophoblast glycoprotein, TPBG), endogenously expressed on tumor cells (human, UniProt Q13641 32-420).
T4 construct: the protein stood on cell lines that express it endogenously; also called endogenously expressed human 5T4; MDA-MB-468 cells
T4 sequence: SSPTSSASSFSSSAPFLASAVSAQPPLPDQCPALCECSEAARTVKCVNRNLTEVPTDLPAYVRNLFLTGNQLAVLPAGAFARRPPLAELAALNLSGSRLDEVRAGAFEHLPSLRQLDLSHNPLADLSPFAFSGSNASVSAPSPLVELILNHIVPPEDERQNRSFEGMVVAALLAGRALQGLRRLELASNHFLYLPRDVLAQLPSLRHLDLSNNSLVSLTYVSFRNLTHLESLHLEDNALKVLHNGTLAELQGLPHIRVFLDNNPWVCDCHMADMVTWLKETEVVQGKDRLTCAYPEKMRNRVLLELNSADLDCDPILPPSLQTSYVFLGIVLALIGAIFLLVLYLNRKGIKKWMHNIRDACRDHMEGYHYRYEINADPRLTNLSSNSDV
Kind of assay: flow cytometry on MDA-MB-468 cells endogenously expressing human 5T4, 0.002 to 200 nM, one-site specific binding fit. In general terms: In flow cytometry, cells or beads pass a laser one at a time.

Assay [5] addresses T5, human full-length 5T4-(GGGGS)-mCherry, transiently expressed on HEK293 cells (human, UniProt Q13641 32-420).
T5 construct: also called human full-length 5T4-mCherry; not shown: mCherry fluorescent protein
T5 sequence: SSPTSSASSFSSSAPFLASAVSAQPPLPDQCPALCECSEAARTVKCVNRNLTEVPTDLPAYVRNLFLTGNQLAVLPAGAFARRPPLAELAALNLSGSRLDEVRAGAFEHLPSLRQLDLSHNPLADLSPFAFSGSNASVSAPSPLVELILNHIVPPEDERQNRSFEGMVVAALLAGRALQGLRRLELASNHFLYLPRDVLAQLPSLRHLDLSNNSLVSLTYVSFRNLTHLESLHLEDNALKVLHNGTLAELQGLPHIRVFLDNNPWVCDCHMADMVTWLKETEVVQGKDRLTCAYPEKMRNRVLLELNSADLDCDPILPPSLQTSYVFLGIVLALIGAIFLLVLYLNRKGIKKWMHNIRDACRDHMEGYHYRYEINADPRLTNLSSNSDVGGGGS
Kind of assay: flow cytometry on mCherry-positive HEK293 cells transiently expressing human full-length 5T4-mCherry, one-site specific binding fit.

Assay [6] deals with T6, white-tufted-ear marmoset full-length 5T4-(GGGGS)-mCherry, transiently expressed on HEK293 cells (white-tufted-ear marmoset (Callithrix …, UniProt Q13641 32-420 (human entry))).
T6 construct: also called marmoset full-length 5T4-mCherry; marmoset 5T4; not shown: mCherry fluorescent protein
T6 chain: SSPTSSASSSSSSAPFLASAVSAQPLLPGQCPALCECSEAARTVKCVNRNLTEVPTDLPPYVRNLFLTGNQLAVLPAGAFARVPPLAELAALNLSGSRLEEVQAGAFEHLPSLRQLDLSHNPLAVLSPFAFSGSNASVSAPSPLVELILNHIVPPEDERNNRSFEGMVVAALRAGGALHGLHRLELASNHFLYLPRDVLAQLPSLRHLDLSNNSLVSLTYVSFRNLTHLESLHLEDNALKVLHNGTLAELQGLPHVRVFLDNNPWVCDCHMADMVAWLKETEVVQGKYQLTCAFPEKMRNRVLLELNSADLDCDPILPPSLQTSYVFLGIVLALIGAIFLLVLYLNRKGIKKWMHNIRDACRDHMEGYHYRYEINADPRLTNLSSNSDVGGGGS
In words: flow cytometry on mCherry-positive HEK293 cells transiently expressing marmoset full-length 5T4-mCherry, one-site specific binding fit.

T1 sequence (P02745 23-245 limits assumed, chain 1 of 3): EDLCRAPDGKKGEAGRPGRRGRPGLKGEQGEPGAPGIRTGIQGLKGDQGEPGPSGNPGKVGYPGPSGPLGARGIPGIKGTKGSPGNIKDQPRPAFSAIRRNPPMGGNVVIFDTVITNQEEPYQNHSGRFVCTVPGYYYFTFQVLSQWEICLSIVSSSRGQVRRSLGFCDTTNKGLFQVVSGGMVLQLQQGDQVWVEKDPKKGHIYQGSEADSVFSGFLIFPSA
T1 sequence (P02746 28-253 limits assumed, chain 2 of 3): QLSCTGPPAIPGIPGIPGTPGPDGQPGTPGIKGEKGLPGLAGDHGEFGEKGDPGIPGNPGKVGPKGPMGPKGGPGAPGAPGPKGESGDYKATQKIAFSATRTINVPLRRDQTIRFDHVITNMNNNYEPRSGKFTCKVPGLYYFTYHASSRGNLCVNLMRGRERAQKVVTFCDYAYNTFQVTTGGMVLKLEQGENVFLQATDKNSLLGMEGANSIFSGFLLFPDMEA
T1 sequence (P02747 29-245 limits assumed, chain 3 of 3): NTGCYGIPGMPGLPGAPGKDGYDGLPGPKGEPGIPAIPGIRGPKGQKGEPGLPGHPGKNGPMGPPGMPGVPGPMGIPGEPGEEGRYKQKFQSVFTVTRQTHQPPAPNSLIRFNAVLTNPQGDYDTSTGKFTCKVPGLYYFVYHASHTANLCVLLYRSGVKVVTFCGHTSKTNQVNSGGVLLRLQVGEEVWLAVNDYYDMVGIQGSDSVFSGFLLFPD

B1: anti-TPBG antibody HC-LALA (LALA-silenced anti-TPBG antibody) (antibody)
heavy: not shown
light: EIVMTQSPDSLAVSLGERATINCKASQSVSNDVAWYQQKPGQPPKLLIYYTSSRYAGVPDRFSGSGSGTDFTLTISSLQAEDVAVYYCQQDYNSPPTFGGGTKLEIKRTVAAPSVFIFPPSDEQLKSGTASVVCLLNNFYPREAKVQWKVDNALQSGNSQESVTEQDSKDSTYSLSSTLTLSKADYEKHKVYACEVTHQGLSSPVTKSFNRGEC
notes: also called anti-TBPG antibody; anti-TPBG mAb HC-LALA
In the case of B1, the binding result in assay [1] is recorded as “no binding (tested: serial dilutions 280 nM-11.6 nM)”. Besides, the Kd in assay [2] was 0.1 nM; in assay [3] it was 0.16 nM; in assay [4], 0.247 nM; in assay [5], 2.15 nM; in assay [6], 5.46 nM.
